Patent US10344301, “Mutants of the bacteriophage lambda integrase” (AGENCY FOR SCIENCE, TECHNOLOGY AND RESEARCH)

Biological target: T1, C3-HIS integrase (E. coli minicircle) (Bacteriophage lambda, UniProt P03700 SEQ:1-356)
T1 chain: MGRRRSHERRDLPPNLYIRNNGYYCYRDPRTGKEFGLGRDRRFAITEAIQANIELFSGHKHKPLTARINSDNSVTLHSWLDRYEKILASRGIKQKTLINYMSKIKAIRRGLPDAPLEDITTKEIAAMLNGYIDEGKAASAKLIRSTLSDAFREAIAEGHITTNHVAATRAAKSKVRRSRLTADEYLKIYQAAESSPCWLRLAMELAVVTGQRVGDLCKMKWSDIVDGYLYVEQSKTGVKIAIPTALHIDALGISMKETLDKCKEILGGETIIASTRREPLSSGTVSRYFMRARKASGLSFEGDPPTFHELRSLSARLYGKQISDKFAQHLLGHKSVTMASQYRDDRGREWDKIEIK
Test: cell_activity; E. coli TG1 chromosomal attB integration; 27 colonies, ~90% correct
Settings: tags: His tag
Source text: The present example follows the methodology depicted in FIG. 2. C3INT-HIS-PET22b(+) was amplified with petF2 (SEQ ID NO: 10) and petR (SEQ ID NO: 11) and the PCR product subsequently intramolecularly ligated to produce a C3INT-HIS minicircle. attP-PET22b(+) was amplified with attP-F (SEQ ID NO: 12) and attPSOE-R (SEQ ID NO: 13) while PET22b(+) was amplified with TEM1prom-F (SEQ ID NO: 14) and TEM1promR (SEQ ID NO: 15) which produced PCR products encoding attP and ampicillin-resistant gene respectively. Splice overlap extension PCR (SOE-PCR) was carried out with these two PCR products using attP-F (SEQ ID NO: 12) and TEM1prom-R (SEQ ID NO: 15). The PCR product was subsequently intramolecularly ligated to produce attP-TEM1 minicircle. 100 ng of C3INT-HIS minicircle and 100 ng attP-TEM1 minicircle were combined and electroporated to 25 μL electrocompetent TG1 cells. The cells were allowed to recover for 1 hr before being plated on varying concentrations of ampicillin-LB agar plates (0.01 mg/mL, 0.02 mg/mL, 0.05 mg/mL, 0.07 mg/mL and 0.1 mg/mL). Incubation was carried out at 37° C. for 12-14 hrs to allow for expression of C3 integrase and chromosomal integration of the ampicillin-resistance cassette by C3 integrase. […]

B1: attB ; attP (dsDNA ; dsDNA)
DNA 1: CTGCTTTTTTATACTAACTTG
DNA 2: CAAGTTAGTATAAAAAAGCAG
DNA 3: CAGCTTTTTTATACTAAGTTG
DNA 4: CAACTTAGTATAAAAAAGCTG
For B1, the binding signal was about 12 fold vs Int-h/218.
